According to patent US20260258115A1 (MAPP BIOPHARMACEUTICAL, published 2026):

B1: ADI-41282 (antibody, V domains shown)
VH: QVQLVQSGGGVVQPGRSLRLSCAASGFMFTIYSMHWVRQAPGKGLEWVAVISNDGVNKYYSDSVKGRFTISRDNSKNTLYLQMNNLRAEDTAVYYCASDIVVLVTATDYWGQGTLVTVSS
VL: ETTLTQSPVTLSLSPGERATLSCRTSQSFSSPLLAWYQQKPGQAPRLLIYGASNRATGIPDRFSGSGSGTDFTLTISRLEPVDFAVYYCQQYGSSPYTFGQGTKLEIK
B2: ADI-41275 (antibody, V domains shown)
VH: EVQLVESGGGLVKPGGSLRLSCAASGFMFSTYSMNWVRQAPGKGLEWVSFITGSSSDKYYAHSVKGRFTISRDNAKRTLYLQLNSLRAEDTAVYYCARFRGLYCDGDCSSRGNTYYNYYGMDVWGQGTTVTVSS
VL: EIVMTQSPLSLSVIPGEPASISCRSSKSLLHSNGYTYLDWYLQKPGQSPQLLIHLGSNRASGVPDRFSGSGSGTDFTLKISRVEAEDVGVFYCMQALQAPPTFGPGTKVEIK
B3: ADI-41283 (antibody, V domains shown)
VH: QVTLKESGPTLVKPTQTLTLTCTFSGFSLSTFGVAVGWIRQPPGKALEWLALIYWDDDKRYSPSLKSRLTITKDISKNQVVLTMTNMDPVDTATYYCAHRLRSLTARGVFDIWGQGTTVTVSS
VL: DIRLTQSPSSLSASVGDRVTITCRASQSINNFLNWYQQRPGKAPTLLIYSASSLQSGVPSRFSGSGSGTDFTLTISSLQPEDFATYFCQQTDSFPWTFGQGTKVEIK
B4: ADI-41274 (antibody, V domains shown)
VH: EVQLVESGGGLVKPGGSLRLSCAASGFSFSSYAMNWVRQAPGKGLQWVSSISAGSSYIDYADSVKGRFTISRDNAENSLFLQMNSLRVEDTAVYYCARVGSYTHGYEFDYWGQGTLVTVSS
VL: QPVLTQPPSVSGAPGQRVTISCTGSNSNIGAGYDVHWYQQLPGTAPKLLIYASTIRPSGVPDRFSGSKSGTSASLAITGLQAEDEADYYCQSYDRNLSVVFGGGTKVTVL
B5: ADI-41281 (antibody, V domains shown)
VH: QVQLVQSGAEVKKPGASVKVSCKASGYSFTNHGIHWVRQAPGQRLEWMGWINVANGFTAYSQNLQGRVTFTRDTSASTAYLELTSLRSEDTAVYHCARDESYCSAGYCYLYFDYWGQGTTVTVSS
VL: DIQVTQSPSSLSASVGDRVTITCRASQNIITYVNWYQQKPGKAPELLIFGASSVQSGVPSRFSGSGSGTDFTLTISSLRPDDFATYYCQQSYSNPRTFGGGTKVEIK
B6: ADI-41276 (antibody, V domains shown)
VH: EVQLVESGGGLVQPGRSLRLSCRASGFTFRNYAMSWVRQAPGKGLEWVGFIRGKGYGGTTEYAASVKGRFTISSDDSRSIAYLQMNSLKTEDTAVYYCTRVREDGVIAVAEYYFDYWGQGTLVTVSS
VL: not shown
B7: ADI-41277 (antibody, V domains shown)
VH: QVQLQESGPGLVKPSGTLSLTCAVSGGSITGRNWWSWVRQPPGKELERIGEIYHGGSTEYNPSLKGRVTISVDKSKNQFSLRLNSVTAADTAVYYCARVAHYDSNGYYIGYFDLWGRGTLVTVSS
VL: EIVLTQSPPSLSASVGDRVTITCRASQSISIYLNWYQQKPGKAPKLLIFAASSLQSGVPLRFSGSGSGTDFTLTISSLQPEDFATYYCHQSYSAPWTFGQGTKVDIK
B8: ADI-41287 (antibody, V domains shown)
VH: EVQLVESGGGLVQPGRSLRLSCAASGFTFDDYAMHWVRQAPGKGLEWVSSISWHSADIGYAASVEGRFTISRDNAKNSLFLQMNSLRPEDTALYYCAKEIVSTSWYSGYFQDWGQGTLVTVSS
VL: QPVLTQPRSVSGSPGQSVTISCTGTSSDVGDYNYVSWYQQHPGKAPKLMIYDVSKRPSGVPDRFSGSKSGNTASLTISGLQGEDEADYYCCSYAGRHTFVFGTATKVTVL
B9: ADI-41286 (antibody, V domains shown)
VH: QVQLVQSGAEVKKPGASVKVSCKASGYTFISYGISWVRQAPGQGPEWMGWISTHNGNTNYAQKLQGRVTMTTDTSTSTAYMELRSLRSDDTAVYYCARDERSIAVEVYLGSTFDIWGQGTMVTVSS
VL: DIQVTQSPSSVSASVGDRVTITCRASQGISSWLAWYQQKPGKAPKLLIYAASTLQSGVPSRFSGSGSGTDFTLTISRLQPEDFATYYCQQANIFGVTFGPGTKVDIK
B10: ADI-41280 (antibody, V domains shown)
VH: QVQLVESGPGLVKPSETLALTCTVSGGSLSTYYWSWIRQPPGKGLEWIGYIYYSGTTYYNPSLKSRVTISEDRSKNQFSLKLTSVTAADTAVYYCARHGPKTEFWSAQYYLELWGRGTLVTVSS
VL: EIVLTQSPGTLSLSPGERATLSCRASQSVSSDYLAWYQQKPGQAPSLLIYGVSTRATGIPDRISGSGSGTDFTLTISRLEPEDFAVYYCHQYGTSPWTFGQGTKVEIK
B11: ADI-41278 (antibody, V domains shown)
VH: EVQLVESGPALVKPTQTLTLTCTFSGFSLSTKRMGVSWIRQPPGKALEWLARIDWDDDKFYSTSLKTRLTISKDTSKNQVVLTLANMDPVDTATYFCARTTVYASGGYYLYYLDYWGQGTLVTVSS
VL: DIVMTQTPSSLSASVGDRVTLTCRASQRIASYVNWYHQKPGKAPNLLIYAASNLQSGVPSRFSGSGSGTDFTLTISSLQPEDFATYYCQQSYSTPLTFGQGTKLEIK
B12: ADI-41285 (antibody, V domains shown)
VH: QVQLVQSGAEVKKPGSSVKVSCKASGGTFSYYAISWVRQAPGQGLEWMGGIIPILGTVKNAQKFQGRVTITADKITSIAYMELSSLRHEDTAVYYCARDYYDSSGYYYNGYGMDVWGQGTTVTVSS
VL: QSVLIQPPSASGTPGQRVTISCSGSSSNIGSNYVYWYQQLPGTAPKLLIYRNDQRPSGVPDRFSGSKSGTSASLAISGLRSGDEADYYCAAWDDSLGGPIWVFGGGTKLTVL
B13: ADI-41279 (antibody, V domains shown)
VH: QVQLVQSGAEVKKAGETLKISCRGPAHTFTSFWIGWVRQTPGKGLEWMGNIYPGDTDTTYSPSFRGQVTISADKSISTAYLQWNSLKASDTAIYYCATRVRHGYSSSGSFESWGQGTMVTVSS
VL: QSVVTQPPSVSGAPGQRITISCTGSNSNTGAGYDVHWYQQLPGAAPKLLIFANNNRPSGVPDRFSGSKSGTSASLAITGLQAEDEADYYCQSYDNSLSAYVFGTGTKLTVL
B14: ADI-41267 (antibody, V domains shown)
VH: QVQLVQSGPGLVKPSGTLSLTCAVSGGSISTTHWWSWVRQPPGKGLEWIGEIYHSGSTNYNPSLKSRVTISVDKSRSQFSLKLTSVTAADTAVYYCARGDPLCSGGICYSGYFDYWGQGTLVTVSS
VL: SYVLTQPPSVSVSPGQTATITCSGDKLGDQYACWYQQKSGQSPVLVIYRDNKRPSGIPERFSGSNSGNTATLTISETQAMDEADYYCQAWGSSSVVFGGGTKVTVL
B15: ADI-41284 (antibody, V domains shown)
VH: QVQLVQSGGGLVKPGGSLRLSCAASGFTFSNAWMSWVRQAPGKGLEWVGRIKSEVDGGTADYAANVKGRLTISRDDSKNMMYLQMNSLKTEDTAVYYCTTDPGVGWIFGEVKLFRTDPEYWGQGTLVTVSS
VL: QSVLTQPPSVSAAPGQKVTISCSGSSSNIGNHYVSWYQQLPGTSPKLLIYDNNKRPSGIPDRFSGSKSGTSATLGITGLQPGDEADYYCGTWDSSLSAVRVFGGGTKVTVL
B16: ADI-41268 (antibody, V domains shown)
VH: EVQLVESGGGLVKPGGSLRLSCVASGFGFTSYSMNWVRQAPGKGLEWVSSISASSTYIHYADSVKGRFTISRDNARNSLYLQMISLRADDTAVYYCSRDGPTYGSGVHVWGQGTMVTVSS
VL: QSALIQPVSVSGSPGQSITISCTGTRSDVGGYNYVSWYQQHPGKAPKLMIYEVRNRPSGVSDRFSGSKSGNTASLTISGLQAEDEGDYYCSSYTSSDTLFYVFGSGTKLTVL
B17: ADI-41271 (antibody, V domains shown)
VH: QVQLQESGPGLVKPSQTLSLTCAISGDSVSSNNAAWNWIRQSPSRGLEWLGRTYYRSKWYNDYAVSVKSRITINPDTSKNQLSLQLNSVTPEDTAVYYCARAGVRQWLVRGMDAFDIWGQGTMVTVSS
VL: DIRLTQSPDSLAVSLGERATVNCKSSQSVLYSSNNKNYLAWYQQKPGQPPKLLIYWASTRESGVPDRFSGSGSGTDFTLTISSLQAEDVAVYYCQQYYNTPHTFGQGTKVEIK
B18: ADI-41270 (antibody, V domains shown)
VH: EVQLVESGGGVVQPGQSLRLSCAASGFTFSSFAMHWVRQAPGKGLEWVAVISYDGSNKYYADSVKGRFTISRDNSKNTLSLQVNSLRAEDTAVYYCARVSAEGSMGRFSDFNYWGLGTLVTVSS
VL: QSALTQPASVSGSPGQSITISCTGTSSDVGSYNLVSWYQQHPGKAPKLMIYEVRKRPSGVSNRFSGSKSGNTASLTISGLQAEDEADYYCCSYAGSDTYVFGTGTKLTVL
B19: ADI-41273 (antibody, V domains shown)
VH: EVQLLESGGDLVRPGGSLRLSCTASGFSFSSSEMNWVRQAPGKGLEWVASINSGGDDIYYADSVKGRFTISRDNAKNSLSLQMDSLRAEDTALYYCARSRSGYSSGWSRFFGNWGQGTLVTVSS
VL: QSALTQPRSVSGSPGQSVTISCTGTISDIGAYNYVSWYQQHPGKAPKVMIYDVSKRPSGVPDRFSGSKSGFTASLTISGLQAEDEADYYCCSYAGRWVFGGGTKLTVL
B20: ADI-41266 (antibody, V domains shown)
VH: QVQLQQSGPGLVKPSQTLSLTCAISGDSVSSNSAAWNWIRQSPSRGLEWLGRTYYRSKWYNDYAVSVKSRITINPDTSKNQFSLQLNSVTPEDTAVYYCARDLPQVDYFDGASFYFFDFWGQGTLVTVSS
VL: QPVLTQPPSVSVAPGQTASITCGGNIIGNKGVHWYQQKPGRAPVLVVYDDSDRPSGIPERFSGSNSGNTATLTISRVEAADEADYYCQVWDTGSHPVVFGGGTKVTVL
B21: ADI-41265 (antibody, V domains shown)
VH: EVQLVQSGAEVKKPGESLTISCKDSGYSFTSYWIGWVRQVPGKGLEWMGIVYPGDSRYSPSFQGHVTMSADKSINTAYLQWSTLKASDTAMYYCAKVVTYGSAIRWFESWGQGTLVTVSS
VL: QSVLTQPPSVSAAPGQKVSISCSGSSSNIGNNFVSWYQQVPGTAPKLLIIDNNKRPSGIPDRFSGSKSGTSATLGITGLQTGDEADYYCGTWDSRLSAEVFGGGTKLTVL

biological target: RSV F on RSV-A2 virus (Respiratory syncytial virus (RSV-A2)); experiment: cell-based or functional assay

B1 and B2 cannot be ordered by “Neutralization IC50 (RSV subtype A)” value: > 25 µg/mL for the first, > 25 µg/mL for the second.

First: B3
Second: B4
The “Neutralization IC50 (RSV subtype A)” value of the first is higher: > 25 µg/mL for the first, 0.109 µg/mL for the second.

B5 and B6 cannot be ordered by “Neutralization IC50 (RSV subtype A)” value: > 25 µg/mL for the first, > 25 µg/mL for the second.

Going from B7 to B8, the “Neutralization IC50 (RSV subtype A)” value falls from > 25 µg/mL to 5.85 µg/mL.

B9 and B10 cannot be ordered by “Neutralization IC50 (RSV subtype A)” value: > 25 µg/mL for the first, > 25 µg/mL for the second.

B11 and B12 cannot be ordered by “Neutralization IC50 (RSV subtype A)” value: > 25 µg/mL for the first, > 25 µg/mL for the second.

B13 and B14 cannot be ordered by “Neutralization IC50 (RSV subtype A)” value: > 25 µg/mL for the first, > 25 µg/mL for the second.

Compared with B15, B16 is lower in “Neutralization IC50 (RSV subtype A)” value: > 25 µg/mL for the first, 0.177 µg/mL for the second.

B17 and B18 cannot be ordered by “Neutralization IC50 (RSV subtype A)” value: > 25 µg/mL for the first, > 25 µg/mL for the second.

B19 and B20 cannot be ordered by “Neutralization IC50 (RSV subtype A)” value: > 25 µg/mL for the first, > 25 µg/mL for the second.

For B21, the “Neutralization IC50 (RSV subtype A)” value was > 25 µg/mL.
